Patent US20240318160A1

How the values were obtained:
Test in all cases: TAL and PAL enzyme kinetics
N[C@@H](Cc1ccccc1)C(=O)O [1] = type: biochemical, Arabidopsis thaliana; conditions: other: PAL assay (L-Phe), pH 8.5, 30° C.
Experimental: (§3) A mixture containing 100 mM Tris-HCl (pH 8.5), 1% glycerol, and purified enzyme in a total volume of 50 μl was preincubated for 3 min at 30° C. […] The reactions were terminated by addition of 6N acetic acid (10 μl).
(§4) The kinetic parameters of the recombinant enzymes were determined using HPLC. Reaction mixtures containing 100 mM Tris-HCl (pH 8.5), 1% glycerol, and purified enzyme (0.15 μg for PAL assay and 1 μg for TAL assay) in a 50 μl total volume were preincubated for 3 min at 30° C. […] After 10 min and 20 min incubations for PAL and TAL assay, respectively, at 30° C., the reaction was terminated by addition of 6N acetic acid (10 μl). […] The products were quantified using calibration curves generated using authentic standards. Non-linear hyperbolic regression analyses were conducted using the Excel Solver tool to calculate Km and Vmax values.

[2] = tested on: N[C@@H](Cc1ccc(O)cc1)C(=O)O; type: biochemical, Sorghum bicolor; conditions: other: TAL assay (L-Tyr), pH 8.5, 30° C.
Experimental: (§1) All substrate solutions were prepared with 0.01 N NaOH to increase the solubility of L-Tyr. A mixture containing 100 mM Tris-HCl (pH 8.5), 1% glycerol, and purified enzyme in a total volume of 50 μl was preincubated for 3 min at 30° C. PAL and TAL reactions were started by addition of 50 μl of 1 mM substrate (L-Phe or L-Tyr, respectively) and were incubated at 30° C. for 20 min unless otherwise noted. The reactions were terminated by addition of 6N acetic acid (10 μl).
(§2) The kinetic parameters of the recombinant enzymes were determined using HPLC. Reaction mixtures containing 100 mM Tris-HCl (pH 8.5), 1% glycerol, and purified enzyme (0.15 μg for PAL assay and 1 μg for TAL assay) in a 50 μl total volume were preincubated for 3 min at 30° C. PAL and TAL reactions were started by addition of 50 μl substrate solution prepared with 0-4 mM L-Phe and 0-2 mM L-Tyr. After 10 min and 20 min incubations for PAL and TAL assay, respectively, at 30° C., the reaction was terminated by addition of 6N acetic acid (10 μl). […] The products were quantified using calibration curves generated using authentic standards. Non-linear hyperbolic regression analyses were conducted using the Excel Solver tool to calculate Km and Vmax values.

N[C@@H](Cc1ccccc1)C(=O)O [3] = type: biochemical, Sorghum bicolor; conditions: other: PAL assay (L-Phe), pH 8.5, 30° C.
Experimental: as §1, §2

[4] = tested on: N[C@@H](Cc1ccc(O)cc1)C(=O)O; type: biochemical, Brachypodium distachyon; conditions: other: TAL assay (L-Tyr), pH 8.5, 30° C.
Experimental: as §1, §2

N[C@@H](Cc1ccccc1)C(=O)O [5] = type: biochemical, Brachypodium distachyon; conditions: other: PAL assay (L-Phe), pH 8.5, 30° C.
Experimental: as §1, §2

[6] = tested on: N[C@@H](Cc1ccc(O)cc1)C(=O)O; type: biochemical, Arabidopsis thaliana; conditions: other: TAL assay (L-Tyr), pH 8.5, 30° C.
Experimental: as §3, §4
N[C@@H](Cc1ccccc1)C(=O)O [7] = type: biochemical, Brachypodium distachyon; conditions: other: PAL assay (L-Phe), pH 8.5, 30° C.; remark: listed apart in the source
Experimental: as §4
N[C@@H](Cc1ccccc1)C(=O)O [8] = type: biochemical, Sorghum bicolor; conditions: other: PAL assay (L-Phe), pH 8.5, 30° C.; remark: listed apart in the source
Experimental: as §4

Arabidopsis thaliana AtPAL1 variant F144H/S114I (as printed in Table 3; AtPAL1^F144H_S116I, SEQ ID NO: 146, elsewhere) (Arabidopsis thaliana; F144H/S116I), sequence (chain, as listed by the source F144H S114I F144H S116I F144H S116I): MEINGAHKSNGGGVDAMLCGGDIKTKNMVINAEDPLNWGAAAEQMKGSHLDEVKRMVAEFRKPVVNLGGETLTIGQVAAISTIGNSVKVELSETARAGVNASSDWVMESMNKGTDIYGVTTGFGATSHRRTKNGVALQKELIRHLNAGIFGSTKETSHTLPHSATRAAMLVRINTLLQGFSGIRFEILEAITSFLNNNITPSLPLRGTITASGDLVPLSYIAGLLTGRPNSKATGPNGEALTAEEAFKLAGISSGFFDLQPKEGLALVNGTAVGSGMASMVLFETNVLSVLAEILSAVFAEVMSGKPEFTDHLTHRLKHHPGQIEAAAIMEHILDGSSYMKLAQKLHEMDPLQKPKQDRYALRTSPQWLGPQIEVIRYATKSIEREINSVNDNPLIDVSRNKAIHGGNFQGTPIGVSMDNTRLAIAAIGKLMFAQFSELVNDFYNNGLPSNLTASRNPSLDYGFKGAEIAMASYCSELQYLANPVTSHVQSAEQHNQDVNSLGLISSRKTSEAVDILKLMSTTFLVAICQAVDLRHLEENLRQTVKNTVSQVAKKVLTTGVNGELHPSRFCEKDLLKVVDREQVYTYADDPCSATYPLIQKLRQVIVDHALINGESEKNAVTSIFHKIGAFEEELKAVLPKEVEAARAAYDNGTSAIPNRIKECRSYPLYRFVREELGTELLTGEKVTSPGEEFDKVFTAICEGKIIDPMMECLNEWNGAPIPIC
Brachypodium distachyon BdPTAL, wild type (Brachypodium distachyon), sequence (chain, as listed by the source): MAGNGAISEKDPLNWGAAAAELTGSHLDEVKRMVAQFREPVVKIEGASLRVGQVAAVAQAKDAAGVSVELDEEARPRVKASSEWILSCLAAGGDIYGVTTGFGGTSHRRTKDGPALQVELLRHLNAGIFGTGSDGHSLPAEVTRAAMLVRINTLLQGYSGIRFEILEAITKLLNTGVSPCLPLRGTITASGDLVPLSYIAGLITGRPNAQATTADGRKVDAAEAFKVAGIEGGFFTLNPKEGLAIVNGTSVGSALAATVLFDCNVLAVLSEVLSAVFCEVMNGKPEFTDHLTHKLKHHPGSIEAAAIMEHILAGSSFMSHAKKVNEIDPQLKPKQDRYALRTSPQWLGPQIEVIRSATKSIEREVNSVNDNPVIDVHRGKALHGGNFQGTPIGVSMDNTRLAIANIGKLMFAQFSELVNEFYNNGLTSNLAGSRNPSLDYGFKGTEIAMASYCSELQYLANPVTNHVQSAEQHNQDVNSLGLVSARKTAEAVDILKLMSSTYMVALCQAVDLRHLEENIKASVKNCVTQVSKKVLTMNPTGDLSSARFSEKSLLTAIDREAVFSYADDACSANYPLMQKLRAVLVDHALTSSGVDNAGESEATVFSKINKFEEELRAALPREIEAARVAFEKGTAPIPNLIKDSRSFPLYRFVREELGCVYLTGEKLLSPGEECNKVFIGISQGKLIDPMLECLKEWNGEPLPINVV
Arabidopsis thaliana AtPAL1, wild type, SEQ ID NO: 144 (Arabidopsis thaliana), sequence (chain, as listed by the source): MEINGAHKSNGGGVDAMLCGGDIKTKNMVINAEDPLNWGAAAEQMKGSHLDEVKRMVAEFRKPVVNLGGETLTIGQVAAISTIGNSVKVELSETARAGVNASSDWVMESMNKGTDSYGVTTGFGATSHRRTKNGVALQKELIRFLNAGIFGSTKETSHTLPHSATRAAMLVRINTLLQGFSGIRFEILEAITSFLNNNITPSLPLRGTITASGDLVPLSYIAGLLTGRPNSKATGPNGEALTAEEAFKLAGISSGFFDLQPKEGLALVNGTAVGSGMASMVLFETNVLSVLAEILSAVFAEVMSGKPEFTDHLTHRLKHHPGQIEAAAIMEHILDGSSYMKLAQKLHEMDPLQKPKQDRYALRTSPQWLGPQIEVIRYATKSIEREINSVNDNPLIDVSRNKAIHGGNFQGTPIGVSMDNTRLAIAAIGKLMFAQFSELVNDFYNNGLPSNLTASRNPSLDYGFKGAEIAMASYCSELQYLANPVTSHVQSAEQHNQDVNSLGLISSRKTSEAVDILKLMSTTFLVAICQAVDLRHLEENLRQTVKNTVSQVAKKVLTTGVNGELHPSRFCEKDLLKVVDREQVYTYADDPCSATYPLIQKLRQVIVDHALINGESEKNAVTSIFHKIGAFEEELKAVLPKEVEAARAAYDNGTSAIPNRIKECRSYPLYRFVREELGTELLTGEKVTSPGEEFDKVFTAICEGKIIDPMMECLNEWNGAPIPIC
Arabidopsis thaliana AtPAL1 variant F144H (AtPAL1^F144H), SEQ ID NO: 261 (Arabidopsis thaliana; F144H), sequence (chain, as listed by the source F144H F144H F144H): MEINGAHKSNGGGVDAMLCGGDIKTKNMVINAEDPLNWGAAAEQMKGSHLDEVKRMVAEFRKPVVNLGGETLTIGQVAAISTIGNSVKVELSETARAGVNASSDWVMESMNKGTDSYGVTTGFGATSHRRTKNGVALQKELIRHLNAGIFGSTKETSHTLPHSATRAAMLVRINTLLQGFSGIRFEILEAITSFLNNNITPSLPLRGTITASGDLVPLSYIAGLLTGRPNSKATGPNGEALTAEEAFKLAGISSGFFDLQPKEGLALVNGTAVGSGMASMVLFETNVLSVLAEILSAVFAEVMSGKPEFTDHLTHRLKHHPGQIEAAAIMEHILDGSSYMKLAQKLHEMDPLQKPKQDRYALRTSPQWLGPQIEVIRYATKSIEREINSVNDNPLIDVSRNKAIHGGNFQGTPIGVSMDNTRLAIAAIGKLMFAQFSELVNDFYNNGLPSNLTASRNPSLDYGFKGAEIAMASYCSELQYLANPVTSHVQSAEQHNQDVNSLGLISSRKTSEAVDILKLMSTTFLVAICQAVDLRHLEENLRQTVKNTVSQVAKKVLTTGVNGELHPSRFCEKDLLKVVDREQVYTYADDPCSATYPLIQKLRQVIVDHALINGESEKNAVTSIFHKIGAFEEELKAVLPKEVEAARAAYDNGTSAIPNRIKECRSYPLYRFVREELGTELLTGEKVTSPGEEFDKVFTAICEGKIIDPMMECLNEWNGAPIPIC
Sorghum bicolor SbPTAL variant H123F (SbPTAL^H123F) (Sorghum bicolor; H123F), sequence (chain, as listed by the source H123F H123F H123F): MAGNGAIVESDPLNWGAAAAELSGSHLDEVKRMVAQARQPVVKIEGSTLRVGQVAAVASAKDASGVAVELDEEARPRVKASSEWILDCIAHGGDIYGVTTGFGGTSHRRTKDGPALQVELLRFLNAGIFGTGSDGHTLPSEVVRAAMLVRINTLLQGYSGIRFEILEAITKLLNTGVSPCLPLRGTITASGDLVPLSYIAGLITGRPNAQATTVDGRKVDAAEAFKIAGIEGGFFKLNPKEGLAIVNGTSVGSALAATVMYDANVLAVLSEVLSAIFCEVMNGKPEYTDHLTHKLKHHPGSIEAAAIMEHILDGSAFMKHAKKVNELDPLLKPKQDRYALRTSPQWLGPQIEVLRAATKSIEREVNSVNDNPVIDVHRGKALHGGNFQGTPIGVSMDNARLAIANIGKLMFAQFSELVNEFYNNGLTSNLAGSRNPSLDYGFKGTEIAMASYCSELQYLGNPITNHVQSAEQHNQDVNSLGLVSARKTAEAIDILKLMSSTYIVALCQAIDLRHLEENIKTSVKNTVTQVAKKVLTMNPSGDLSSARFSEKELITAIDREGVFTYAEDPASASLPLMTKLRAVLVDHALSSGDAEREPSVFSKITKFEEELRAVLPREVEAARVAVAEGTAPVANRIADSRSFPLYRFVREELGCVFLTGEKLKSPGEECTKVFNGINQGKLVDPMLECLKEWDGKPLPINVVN
Sorghum bicolor SbPTAL, wild type (Sorghum bicolor), sequence (chain, as listed by the source): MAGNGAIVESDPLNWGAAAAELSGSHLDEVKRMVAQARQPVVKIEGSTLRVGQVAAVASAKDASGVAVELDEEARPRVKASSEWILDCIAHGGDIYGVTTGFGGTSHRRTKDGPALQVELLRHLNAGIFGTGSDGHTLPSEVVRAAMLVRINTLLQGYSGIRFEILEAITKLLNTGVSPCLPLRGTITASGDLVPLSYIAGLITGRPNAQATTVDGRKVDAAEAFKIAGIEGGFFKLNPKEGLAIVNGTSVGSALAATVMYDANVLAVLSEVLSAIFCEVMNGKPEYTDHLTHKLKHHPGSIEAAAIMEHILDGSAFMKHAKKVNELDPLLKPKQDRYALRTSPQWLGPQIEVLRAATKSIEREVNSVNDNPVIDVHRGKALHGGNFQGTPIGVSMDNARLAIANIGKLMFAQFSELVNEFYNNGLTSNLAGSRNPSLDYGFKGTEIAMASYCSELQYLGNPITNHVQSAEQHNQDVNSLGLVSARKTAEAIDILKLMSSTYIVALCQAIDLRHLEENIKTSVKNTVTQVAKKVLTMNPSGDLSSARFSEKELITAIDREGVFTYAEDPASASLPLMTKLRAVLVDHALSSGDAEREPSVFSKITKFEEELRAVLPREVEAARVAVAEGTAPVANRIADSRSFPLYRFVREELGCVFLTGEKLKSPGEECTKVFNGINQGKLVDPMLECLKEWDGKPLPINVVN
Arabidopsis thaliana AtPAL1 variant S114I (as printed in Table 3; AtPAL1^S116I, SEQ ID NO: 260, elsewhere) (Arabidopsis thaliana; S116I), sequence (chain, as listed by the source S114I S116I S116I): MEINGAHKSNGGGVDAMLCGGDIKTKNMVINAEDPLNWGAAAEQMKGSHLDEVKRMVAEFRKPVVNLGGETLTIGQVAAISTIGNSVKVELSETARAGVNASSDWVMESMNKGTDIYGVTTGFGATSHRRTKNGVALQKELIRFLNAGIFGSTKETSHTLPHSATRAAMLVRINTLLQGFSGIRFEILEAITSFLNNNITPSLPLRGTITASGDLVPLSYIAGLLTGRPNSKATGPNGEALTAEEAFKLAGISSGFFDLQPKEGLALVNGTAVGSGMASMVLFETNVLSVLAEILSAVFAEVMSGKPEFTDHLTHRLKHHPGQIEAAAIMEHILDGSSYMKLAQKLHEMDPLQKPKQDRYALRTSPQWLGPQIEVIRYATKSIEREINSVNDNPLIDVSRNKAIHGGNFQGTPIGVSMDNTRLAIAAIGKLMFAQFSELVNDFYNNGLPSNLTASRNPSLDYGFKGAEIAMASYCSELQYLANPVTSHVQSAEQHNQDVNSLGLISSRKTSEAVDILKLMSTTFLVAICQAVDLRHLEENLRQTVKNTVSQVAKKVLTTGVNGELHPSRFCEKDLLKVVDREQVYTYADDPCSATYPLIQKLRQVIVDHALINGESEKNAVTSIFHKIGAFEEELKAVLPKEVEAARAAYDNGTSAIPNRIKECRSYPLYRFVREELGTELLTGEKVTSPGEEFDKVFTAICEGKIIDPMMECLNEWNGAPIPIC

Arabidopsis thaliana AtPAL1, wild type, SEQ ID NO: 144 (Arabidopsis thaliana)
Km (N[C@@H](Cc1ccccc1)C(=O)O [1]): 52.2 ± 3.1 µM
kcat (N[C@@H](Cc1ccccc1)C(=O)O [1]): 1.42 ± 0.07 s⁻¹
kcat/Km (N[C@@H](Cc1ccccc1)C(=O)O [1]): 27310 ± 850 M⁻¹ s⁻¹

Arabidopsis thaliana AtPAL1 variant F144H/S114I (as printed in Table 3; AtPAL1^F144H_S116I, SEQ ID NO: 146, elsewhere) (Arabidopsis thaliana; F144H/S116I)
Km (N[C@@H](Cc1ccccc1)C(=O)O [1]): 87.3 ± 2.9 µM
kcat (N[C@@H](Cc1ccccc1)C(=O)O [1]): 0.88 ± 0.01 s⁻¹
kcat/Km (N[C@@H](Cc1ccccc1)C(=O)O [1]): 10070 ± 440 M⁻¹ s⁻¹

Sorghum bicolor SbPTAL variant H123F (SbPTAL^H123F) (Sorghum bicolor; H123F)
Km [2]: 750.7 ± 36.8 µM
kcat [2]: 0.03 ± 0.00 s⁻¹
kcat/Km [2]: 40 ± 0 M⁻¹ s⁻¹
Km (N[C@@H](Cc1ccccc1)C(=O)O [3]): 3.8 ± 2.0 µM
kcat (N[C@@H](Cc1ccccc1)C(=O)O [3]): 0.10 ± 0.00 s⁻¹
kcat/Km (N[C@@H](Cc1ccccc1)C(=O)O [3]): 30970 ± 13700 M⁻¹ s⁻¹

Brachypodium distachyon BdPTAL variant H123F (BdPTAL^H123F) (Brachypodium distachyon; H123F)
Km [4]: 765.2 ± 65.8 µM
kcat [4]: 0.03 ± 0.00 s⁻¹
kcat/Km [4]: 40 ± 0 M⁻¹ s⁻¹
Km (N[C@@H](Cc1ccccc1)C(=O)O [5]): 6.0 ± 1.4 µM
kcat (N[C@@H](Cc1ccccc1)C(=O)O [5]): 0.17 ± 0.00 s⁻¹
kcat/Km (N[C@@H](Cc1ccccc1)C(=O)O [5]): 29920 ± 6750 M⁻¹ s⁻¹

Arabidopsis thaliana AtPAL1 variant S114I (as printed in Table 3; AtPAL1^S116I, SEQ ID NO: 260, elsewhere) (Arabidopsis thaliana; S116I)
Km [6]: 515.4 ± 54.3 µM
kcat [6]: 0.02 ± 0.00 s⁻¹
kcat/Km [6]: 40 ± 0 M⁻¹ s⁻¹
Km (N[C@@H](Cc1ccccc1)C(=O)O [1]): 10.1 ± 1.9 µM
kcat (N[C@@H](Cc1ccccc1)C(=O)O [1]): 0.23 ± 0.00 s⁻¹
kcat/Km (N[C@@H](Cc1ccccc1)C(=O)O [1]): 23710 ± 4630 M⁻¹ s⁻¹

Arabidopsis thaliana AtPAL1 variant F144H (AtPAL1^F144H), SEQ ID NO: 261 (Arabidopsis thaliana; F144H)
Km (N[C@@H](Cc1ccccc1)C(=O)O [1]): 1198.9 ± 21.1 µM
kcat (N[C@@H](Cc1ccccc1)C(=O)O [1]): 1.58 ± 0.04 s⁻¹
kcat/Km (N[C@@H](Cc1ccccc1)C(=O)O [1]): 1320 ± 20 M⁻¹ s⁻¹

Brachypodium distachyon BdPTAL, wild type (Brachypodium distachyon)
Km (N[C@@H](Cc1ccccc1)C(=O)O [7]): 216.6 ± 10.3 µM
kcat (N[C@@H](Cc1ccccc1)C(=O)O [7]): 1.05 ± 0.05 s⁻¹
kcat/Km (N[C@@H](Cc1ccccc1)C(=O)O [7]): 4840 ± 110 M⁻¹ s⁻¹

Sorghum bicolor SbPTAL, wild type (Sorghum bicolor)
Km (N[C@@H](Cc1ccccc1)C(=O)O [8]): 150.1 ± 14.4 µM
kcat (N[C@@H](Cc1ccccc1)C(=O)O [8]): 0.69 ± 0.01 s⁻¹
kcat/Km (N[C@@H](Cc1ccccc1)C(=O)O [8]): 4630 ± 490 M⁻¹ s⁻¹
